Assay [1] addresses T1, HIV‐1 envelope glycoprotein gp120, strain HxBc2 (HIV-1 strain HxBc2, UniProt P04578 33-511). The experiment in a line: cell-based or functional assay.
Assay [2] deals with T1, HIV‐1 envelope glycoprotein gp120, …. In words: ELISA; gp120 HxBc2 coated (1.4 μg/mL, 0.1 M phosphate buffer pH 7.4, overnight 4°C), blocked with Ficoll 400; biotinylated peptide in serial threefold dilutions from 400 nM, overnight 4°C; detected with anti-biotin peroxidase. The settings on record: both partners purified. A general note: In an ELISA, binding on a coated surface is turned into a signal by an enzyme label.

Non-standard residues stand in square brackets, D forms with d. *: point of attachment. Biotin = O=C1N[C@H]2[C@H](CS[C@H]2CCCCC(=O)*)N1; Ahx = NCCCCCC(=O)O; βAla = NCCC(=O)O

For orientation: EC50 means the concentration at which the effect is half-maximal.

B1: H1H3s‐allD (peptide)
chain: Ac-G[dY][dR][dF][dS][dN][dF][dV][dI][dH][dW]G[βAla]G[Ahx]G[dK](Biotin)G[Ahx][dS][dV]G[dP][dY][dS][dW][dD][dD][dS][dP][dQ][dD][dN][dY][dM][dD][dS]-NH2
SMILES: CC[C@@H](C)[C@@H](NC(=O)[C@H](NC(=O)[C@@H](Cc1ccccc1)NC(=O)[C@@H](CC(N)=O)NC(=O)[C@@H](CO)NC(=O)[C@@H](Cc1ccccc1)NC(=O)[C@@H](CCCNC(=N)N)NC(=O)[C@@H](Cc1ccc(O)cc1)NC(=O)CNC(C)=O)C(C)C)C(=O)N[C@H](Cc1c[nH]cn1)C(=O)N[C@H](Cc1c[nH]c2ccccc12)C(=O)NCC(=O)NCCC(=O)NCC(=O)NCCCCCC(=O)NCC(=O)N[C@H](CCCCNC(=O)CCCC[C@@H]1SC[C@@H]2NC(=O)N[C@@H]21)C(=O)NCC(=O)NCCCCCC(=O)N[C@H](CO)C(=O)N[C@@H](C(=O)NCC(=O)N1CCC[C@@H]1C(=O)N[C@H](Cc1ccc(O)cc1)C(=O)N[C@H](CO)C(=O)N[C@H](Cc1c[nH]c2ccccc12)C(=O)N[C@H](CC(=O)O)C(=O)N[C@H](CC(=O)O)C(=O)N[C@H](CO)C(=O)N1CCC[C@@H]1C(=O)N[C@H](CCC(N)=O)C(=O)N[C@H](CC(=O)O)C(=O)N[C@H](CC(N)=O)C(=O)N[C@H](Cc1ccc(O)cc1)C(=O)N[C@H](CCSC)C(=O)N[C@H](CC(=O)O)C(=O)N[C@H](CO)C(N)=O)C(C)C
Consider B1, for which the “neutralisation of HIV-1 NL4-3 infection, SEAP reporter CEMx174 cells, IC50” value in assay [1] was found to be 1900 nM.

B2: H1H3s (peptide)
chain: Ac-GYRFSNFVIHWG[βAla]G[Ahx]GK(Biotin)G[Ahx]SVGPYSWDDSPQDNYMDS-NH2
modifications: not fully specified; printed as Ac‐GYRFSNFVIHW‐GBGXG‐K*‐GX‐SVGPYSWDDSPQDNYMDS‐NH_2_
For the molecule B2, the 50% effective concentration (EC50) in assay [2] worked out at 6.46 ± 1.5 nM. Besides, the “neutralisation of HIV-1 NL4-3 infection, SEAP reporter CEMx174 cells, IC50” value in assay [1] worked out at 6300 nM.

B3: H1H3s‐R28K (peptide)
chain: Ac-GYKFSNFVIHWG[βAla]G[Ahx]GK(Biotin)G[Ahx]SVGPYSWDDSPQDNYMDS-NH2
modifications: not fully specified; printed as Ac‐GYKFSNFVIHW‐GBGXG‐K*‐GX‐SVGPYSWDDSPQDNYMDS‐NH_2_
Turning to B3, in assay [2], the EC50 came out at 7.86 ± 1.35 nM.

The values above are taken from PMC11833279, “Versatile Features of an Antibody Mimetic Peptide and Its Variants” (Journal of Peptide Science, 2025).
